Experiments:
[1] = molecular target: Elizabethkingia meningoseptica BioE (Elizabethkingia meningoseptica); test: SEC; Superdex 75 (Increase) column, 20 mM Tris-HCl pH 8.0, 300 mM NaCl; oligomeric state judged from retention volume
[2] = molecular target: Chlamydia psittaci BioE (Chlamydia psittaci); test: SPR; […], single-cycle kinetics, 1:1 Langmuir fit; […]

stearoyl-ACP (E. coli acyl carrier protein carrying a C18 acyl group), sequence (P0A6A8 2-78): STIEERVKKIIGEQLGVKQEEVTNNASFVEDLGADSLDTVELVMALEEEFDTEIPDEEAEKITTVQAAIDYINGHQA

| Substance | stoichiometry N [1] | Kd [2] [nM] |
| --- | --- | --- |
| Elizabethkingia meningoseptica BioE (enzyme) | 2 | – |
| stearoyl-ACP (E. coli acyl carrier protein carrying a C18 acyl group) (from UniProt P0A6A8 2-78) (natural protein) | – | 203 |
